Experimental data from paper PMC7797058, “Characterization of the first tetrameric transcription factor of the GntR superfamily with allosteric regulation from the bacterial pathogen Agrobacterium fabrum” (Nucleic Acids Research, 2020).
Positions count from the first letter of the chain named. Names and notes keep the numbering of the source.

What was measured:
[1] = target: T1, Atu1419 (Agrobacterium fabrum C58) (UniProt A9CJ36); test: EMSA; conditions: EMSA: 50 mM Tris-HCl pH 8, 150 mM NaCl, 30 nM DNA, 30 min at room temperature; gel 6% or 12% PAGE in TBE at 4 C
T1 sequence: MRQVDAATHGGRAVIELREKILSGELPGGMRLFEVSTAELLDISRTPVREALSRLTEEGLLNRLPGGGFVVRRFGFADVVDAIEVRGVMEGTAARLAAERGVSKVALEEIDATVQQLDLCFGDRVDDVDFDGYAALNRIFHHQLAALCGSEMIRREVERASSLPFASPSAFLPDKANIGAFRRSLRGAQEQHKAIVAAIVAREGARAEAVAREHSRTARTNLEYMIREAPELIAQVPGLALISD

Atu1419 [2] = target: T2, Atu1419 (Agrobacterium fabrum, UniProt A9CJ36); test: isothermal titration calorimetry; type: binding
T2 construct: theoretical monomer mass ~26542 Da; homotetramer; co-purified Zn2+
T2 sequence (A9CJ36 1-244): T1 sequence

Atu1419 [3] = target: T2, Atu1419; test: differential scanning calorimetry; type: binding; conditions: 10 µM protein, 100 µM MEF, 1 K/min; absolute Tm with ligand, apo reference Tm 52.6 °C
Atu1419 [4] = target: T3, Atu1419 (Agrobacterium fabrum C58, UniProt A9CJ36 1-244); test: X-ray crystallography; Zn2+, citrate (orientation B); EMSA: 50 mM Tris-HCl pH 8, 150 mM NaCl, 30 nM DNA, 30 min at room temperature; gel 6% or 12% PAGE in TBE at 4 C; conditions: protein: recombinant; tags: C-terminal 6xHis; chain copies: 4; blunt; self-complementary, 2 strand copies
T3 sequence: T1 sequence

[5] = target: the molecule itself; test: SEC + SEC-MALS; apo Atu1419 at 25 uM; Superdex 200 10/300 GL; 50 mM Tris pH 8, 150 mM NaCl
[6] = target: the molecule itself; test: not stated; oligomeric state of purified Atu1419-H3A; method not given

In the case of “AAGCGCCTGAACTGATTGCGCAGGTTCCGGGTCTCGCACTCATCAGCGACTAAGCGGCGGAAATCGCTGCAAATCCAGGGGTGGCGCCTTTTGGCGCCGCCTTTATTTTTGTCGACACCCTCCCTGACGCGGTAATTTTGCGCTTGCAATTTATCAAAGCACAGCGTTTCATGTATACATAGATGCGATTGCCAGGGAGGAGATGACAATGGCAAATTCCAGTCTGACCGAGGTTTTGAAGCAATATCCGAACCCCGTTGAAATGCTC (double strand) [Patu1420]”, the binding [1] is reported as “binds”.

“GGTGGGACTGGTCAAACAACACGGCACCCTCGCGCCATGCGGCCTGCTCGGAACGCCAGTTGCTGAACTCACCGGCGACAACCGGGTATACATACATTCCGATTTTTGAGTTGCGGAGCATTTCAACGGGGTTCGGATATTGCTTCAAAACCTCGGTCAGACTGGAATTTGCCATTGTCATCTCCTCCCT (double strand) [P2-atu1420]” was tested, and the binding [1] was “binds”.

With `Nc1nc2c(c(=O)[nH]1)N1CN(c3ccc(C(=O)N[C@@H](CCC(=O)O)C(=O)O)cc3)C[C@H]1CN2` [MEF, N5,N10-methylenetetrahydrofolate] the Kd (Atu1419 [2]) was roughly 20 µM and the Tm (Atu1419 [3]) was 63.5 °C.

B1: 10-mer palindrome (dsDNA)
DNA 1: ATGTATACAT
DNA 2: ATGTATACAT
B1: binds (Atu1419 [4]).

B2: Atu1419 transcriptional regulator (GntR superfamily, VanR group) of Agrobacterium fabrum (natural protein, UniProt A9CJ36 1-244, looked up)
chain: T1 sequence
notes: Atu1419, GntR-type transcriptional repressor of the SpG8-1b region, Agrobacterium fabrum C58; theoretical molecular weight about 26 542 Da for a monomer; Co-purifies with one Zn2+ ion per subunit; also called apo Atu1419; wild-type Atu1419; source: E. coli BL21, pET-20b, purified (His-Trap HP, Superdex 200 gel filtration)
With B2 the “stoichiometry N” value [5] was 4.

B3: Atu1419-H3A mutant (H192A, H141A and H214A) (natural protein)
chain: T1 sequence with H141A, H192A, H214A
notes: The PDB entries are of the wild-type parent; the mutant could not be crystallised; also called triple point mutant; source: E. coli BL21, synthetic gene (Genscript) in pET-20b, expressed and purified as the wild-type protein
For B3, the “stoichiometry N” value [6] was 4.
